The supplement of paper PMC9170038

Assays:
[1] = system: MS2 coat protein; assay: apparent KD of MS2 coat protein, switch ON state; designed switch direction (-1 OFF switch, 1 ON switch): -1; higher = weaker reporter binding; details: FMN input: 0 or 200 uM; Eterna round: R93 (includes R88 designs)
Method in brief: (§1)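 On-chip transcription from Illumina sequencing clusters produced the designed RNA switches. These were titrated with SNAP-549-labelled MS2 coat protein (twofold steps, 0.7 or 1.5 nM to 3 µM) in 100 mM Tris-HCl pH 7.5, 80 mM KCl, 4 mM MgCl2, with or without constant ligand. The apparent KD given is the per-design median of normalised cluster binding-curve fits.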

[2] = system: MS2 coat protein; assay: apparent KD of MS2 coat protein, switch OFF state (with FMN for OFF switches, without FMN for ON switches); designed switch direction (-1 OFF switch, 1 ON switch): -1; higher = weaker reporter binding; details: FMN input: 0 or 200 uM; Eterna round: R93 (includes R88 designs)
Method in brief: as §1

GAAAAGUGAGGAUAUACAGAUAAAAAAACGAAAAAAAAUCUGUAGAAGGCACAUGAGGAUCACCCAUGUAAAAA [Mat - Exclusion 4 - Mayanna - D106]
apparent KD of MS2 coat protein [1]: 31.7 nM
apparent KD of MS2 coat protein [2]: 29.8 nM

AAAACACAUGAGGAUCACCCAUGUGAGGAUAUGCUAUGGAAAUAAAAAAUAAAACAUAGCAGAAGGCGCAGGAA [Mat - Exclusion 1 - Eli mod - D47]
apparent KD of MS2 coat protein [1]: 25.2 nM
apparent KD of MS2 coat protein [2]: 29.1 nM

UUAGAACAUGAGGAUCACCCAUGUGAGGAUAUGCAAUACUAAAAUUAAGAUAAUUAUAGCAGAAGGCACGUAGU [JR_EXc001_Sub804]
apparent KD of MS2 coat protein [1]: 33.2 nM
apparent KD of MS2 coat protein [2]: 40.9 nM

UCCAGACAUGAGGAUCACCCAUGUCAGGAUAUCUACAGAACCUCAUGUAAAAAACUGUAGAGAAGGGAUAUGAA [Design 97: Pseudoknot G]
apparent KD of MS2 coat protein [1]: 16.7 nM
apparent KD of MS2 coat protein [2]: 16 nM

AAAUGACAUGAGGAUCACCCAUGUCAGGAUAUGACUUGAAAAAAAAAAAAAAAACAUGUCAGAAGGGACAUGGG [Design 50: Sub-opt FB]
apparent KD of MS2 coat protein [1]: 15.7 nM
apparent KD of MS2 coat protein [2]: 9.45 nM

AGCUAGUGAGGAUAUACGAACAUGUCAACGGACUGUAAGGGACAUGAGGAUCACCCAUGUAGAAGGCACUAGCA [Diamond 57]
apparent KD of MS2 coat protein [1]: 67.2 nM
apparent KD of MS2 coat protein [2]: 165 nM

AAAAAACAUGAGGAUCACCCAUGUGAGGAUAUGCGAAAAUAAAAUAAAAUAAAUAAAAGCAGAAGGCACAAAAA [Mat - Exclusion 1 - Eli mod - D59]
apparent KD of MS2 coat protein [1]: 41.1 nM
apparent KD of MS2 coat protein [2]: 43.9 nM

AAAAAACAUGAGGAUCACCCAUGUGAGGAUAUGAACGAAAAUAAAUAAAAAUAAAAGUUCAGAAGGUACGAAAA [66%, Wbt, 3]
apparent KD of MS2 coat protein [1]: 25.2 nM
apparent KD of MS2 coat protein [2]: 30.7 nM

AGCUAGUCAGGAUAUACGAACAUGUAAAAAGACGUGAAGGGACAUGAGGAUCACCCAUGUAGAAGGGACUAGAA [74%, Web mod - With 2 less C's]
apparent KD of MS2 coat protein [1]: 46.7 nM
apparent KD of MS2 coat protein [2]: 91.3 nM

AAGAAGUCAGGAUAUGCGAAUCGAUAAGAACGUCAAAGAAAGCAGAAGGGACAUGAGGAUCACCCAUGUAAAGA [Opal 39]
apparent KD of MS2 coat protein [1]: 30.7 nM
apparent KD of MS2 coat protein [2]: 27.6 nM

AAGGGACAUGAGGAUCACCCAUGUCAGGAUAUGCUAUGGAAAAUAAAAAUAAAACAUAGCAGAAGGGAUAAAAA [Denovo 3]
apparent KD of MS2 coat protein [1]: 20.2 nM
apparent KD of MS2 coat protein [2]: 45.4 nM

GGUUGACGAGGAUAUACAUGAGGAUCACCCAUGUGAGAGAAAAAAGUGAGAAAGAAAAGUAGAAGGCGUUGACG [salish99-ex3-59]
apparent KD of MS2 coat protein [1]: 36.9 nM
apparent KD of MS2 coat protein [2]: 91.8 nM

AGGAAACAUGAGGAUCACCCAUGUGAGGAUAUAGAAAAGAAAAGAAAAGAAAGAAGAACUAGAAGGCACAAGAA [Neheb]
apparent KD of MS2 coat protein [1]: 31.2 nM
apparent KD of MS2 coat protein [2]: 28.8 nM

AAAAAGGCAGGAUAUACGAAACUAAGACAAAUAAGAAAGGGACAUGAGGAUCACCCAUGUAGAAGGGCCAAAAA [Exclusion 2-01... 60% 4]
apparent KD of MS2 coat protein [1]: 49.1 nM
apparent KD of MS2 coat protein [2]: 70.1 nM

AAAACACAUGAGGAUCACCCAUGUGAGGAUAUCGUGCAGUAGACGAAAGUCUACUGCACGAGAAGGCACAAGGA [Tweaking Brourd]
apparent KD of MS2 coat protein [1]: 33 nM
apparent KD of MS2 coat protein [2]: 50.2 nM

AAAAAGUCAGGAUAUACGAAAGUGCGAAAGCACAAAAAGAGACAUGAGGAUCACCCAUGUAGAAGGGACAAGAA [Married to this design, 61% 2]
apparent KD of MS2 coat protein [1]: 45 nM
apparent KD of MS2 coat protein [2]: 17.8 nM

AGUAUGCGAGGAUAUACAUGAGGAUCACCCAUGUGAGAGAUAAGUGUGAGAAAGACAUGUAGAAGGCGCGUACA [JL Lego Mod 28]
apparent KD of MS2 coat protein [1]: 146 nM
apparent KD of MS2 coat protein [2]: 35.1 nM

AAGAAUCGAGGAUAUACAAAAUAAAAGAAAAGAAAGAAAGAACAUGAGGAUCACCCAUGUAGAAGGCGAAAGAA [Khaneferre Sobekhotep IV]
apparent KD of MS2 coat protein [1]: 30.3 nM
apparent KD of MS2 coat protein [2]: 21.9 nM

ACAAACCAAGGAUAUACAUGAGGAUCACCCAUGUGUUCGGCGUUUAGCAUGGGCAGCAGUAGAAGGUGGAGAAA [Dilareat]
apparent KD of MS2 coat protein [1]: 37.4 nM
apparent KD of MS2 coat protein [2]: 93.1 nM

AAGAAGUGAGGAUAUGUCUGUGCGAAAAAAAAAAAGUGCAGACAGAAGGCACAUGAGGAUCACCCAUGUGGAAA [Florian 65% 5]
apparent KD of MS2 coat protein [1]: 27.8 nM
apparent KD of MS2 coat protein [2]: 29.1 nM
